Source: paper PMC6264593 (2018)

How the values were obtained:
Aβ monomer = Aβ monomer (Homo sapiens, UniProt P05067); experiment: SPR
Aβ protofibrils = Aβ protofibrils (Homo sapiens, UniProt P05067); experiment: SPR

B1: Gantenerumab (antibody, V domains shown)
VH: QVELVESGGGLVQPGGSLRLSCAASGFTFSSYAMSWVRQAPGKGLEWVSAINASGTRTYYADSVKGRFTISRDNSKNTLYLQMNSLRAEDTAVYYCARGKGNTHKPYGYVRYFDVWGQGTLVTVSS
VL: DIVLTQSPATLSLSPGERATLSCRASQSVSSSYLAWYQQKPGQAPRLLIYGASSRATGVPARFSGSGSGTDFTLTISSLEPEDFATYYCLQIYNMPITFGQGTKVEIK
Question: Which Kd (Aβ monomer) does the source give for B1 here?
Answer: 34 µM

Question: And the Kd (Aβ protofibrils)?
Answer: 0.0008 µM
